Measured values as given in the Human Domainome abundance scans (Beltran et al. 2025).
± gives the uncertainty stated by the source.

B1: Lysine-specific demethylase 2B, residues 656 to 722; numbered along this chain, Q8NHM5 (parent)
chain: LPHTAVCLVCGEAGKEDTVEEEEGKFNLMLMECSICNEIIHPGCLKIKESEGVVNDELPNCWECPKC

Variants of: B1
Test: abundance fitness (aPCA) (normalised: wild type 0, dead -1); higher = more abundant; growth selection in yeast, the domain comes from the species named
Conditions: Homo sapiens

For LPHTAVCLVCGEAGKEDTVETEEGKFNLMLMECSICNEIIHPGCLKIKESEGVVNDELPNCWECPKC [E21T], which abundance fitness is on record?
Its abundance fitness is 0.238 ± 0.11.

With LPHTAVCLVCGEAGKEDTVEEEEGKFNLMLMLCSICNEIIHPGCLKIKESEGVVNDELPNCWECPKC [E32L] as the variant, how does the abundance fitness read?
The abundance fitness was 0.005 ± 0.065.

For LPHTAVCLECGEAGKEDTVEEEEGKFNLMLMECSICNEIIHPGCLKIKESEGVVNDELPNCWECPKC [V9E], which abundance fitness is on record?
Its abundance fitness is -0.053 ± 0.15.

With LPHTAVCLVCGEAGKEDLVEEEEGKFNLMLMECSICNEIIHPGCLKIKESEGVVNDELPNCWECPKC [T18L] as the variant, how does the abundance fitness read?
Its abundance fitness is -0.042 ± 0.094.

For LPHTAVCLVCGEAGKEDTVEEEEGKFNLILMECSICNEIIHPGCLKIKESEGVVNDELPNCWECPKC [M29I], which abundance fitness is on record?
The abundance fitness was -0.652 ± 0.36.

Which abundance fitness does the source give for LPHTAVCLVCGEAGKEDTVEEEEGKFNLMLMECSICNEIIHPGCLKIFESEGVVNDELPNCWECPKC [K48F] here?
The abundance fitness was -0.078 ± 0.19.

Which abundance fitness does the source give for LPHTAVCLVCGEMGKEDTVEEEEGKFNLMLMECSICNEIIHPGCLKIKESEGVVNDELPNCWECPKC [A13M] here?
Its abundance fitness is 0.286 ± 0.1.

For LPHTAVCLVCGEAGKEDTVEEEPGKFNLMLMECSICNEIIHPGCLKIKESEGVVNDELPNCWECPKC [E23P], which abundance fitness is on record?
The abundance fitness was -0.342 ± 0.22.

With LPHTAVCLVCGEAGKEDTVEEERGKFNLMLMECSICNEIIHPGCLKIKESEGVVNDELPNCWECPKC [E23R] as the variant, how does the abundance fitness read?
The abundance fitness was -0.058 ± 0.076.

For LPHVAVCLVCGEAGKEDTVEEEEGKFNLMLMECSICNEIIHPGCLKIKESEGVVNDELPNCWECPKC [T4V], which abundance fitness is on record?
Its abundance fitness is -0.947 ± 0.28.

For LPHTAVCLVCGEAGKEDTREEEEGKFNLMLMECSICNEIIHPGCLKIKESEGVVNDELPNCWECPKC [V19R], which abundance fitness is on record?
Its abundance fitness is 0.056 ± 0.086.

For LPHTAVCLVCGEAGKEDTSEEEEGKFNLMLMECSICNEIIHPGCLKIKESEGVVNDELPNCWECPKC [V19S], which abundance fitness is on record?
The abundance fitness was -0.151 ± 0.13.

Which abundance fitness does the source give for LPHTAVCLVCGEAGKEDTVEEEEGKFNLMLMECSICNEIIHPGCLKIKESEGVVNDILPNCWECPKC [E57I] here?
The abundance fitness was -0.196 ± 0.16.

For LPHTAVCLVCGEAGKEDTVEEEEGKFNLMLMECSICNEIIHPGCLKIKESEGVVNDELPNCWECPCC [K66C], which abundance fitness is on record?
Its abundance fitness is -0.819 ± 0.41.

With LPHTAVCLVCGMAGKEDTVEEEEGKFNLMLMECSICNEIIHPGCLKIKESEGVVNDELPNCWECPKC [E12M] as the variant, how does the abundance fitness read?
The abundance fitness was 0.089 ± 0.097.

With LPHTAVCLVCEEAGKEDTVEEEEGKFNLMLMECSICNEIIHPGCLKIKESEGVVNDELPNCWECPKC [G11E] as the variant, how does the abundance fitness read?
Its abundance fitness is -0.174 ± 0.1.

Which abundance fitness does the source give for NPHTAVCLVCGEAGKEDTVEEEEGKFNLMLMECSICNEIIHPGCLKIKESEGVVNDELPNCWECPKC [L1N] here?
Its abundance fitness is 1.01 ± 0.2.

With QPHTAVCLVCGEAGKEDTVEEEEGKFNLMLMECSICNEIIHPGCLKIKESEGVVNDELPNCWECPKC [L1Q] as the variant, how does the abundance fitness read?
Its abundance fitness is -0.468 ± 0.24.

Which abundance fitness does the source give for LPHTAVCLVCGEAGKEDTVEEEEGKFNLMLMECSICNEIFHPGCLKIKESEGVVNDELPNCWECPKC [I40F] here?
Its abundance fitness is -0.579 ± 0.31.

For LPHTAVCLVCGEAGKEDTVEEKEGKFNLMLMECSICNEIIHPGCLKIKESEGVVNDELPNCWECPKC [E22K], which abundance fitness is on record?
The abundance fitness was 0.261 ± 0.12.

With LPHTAVCLVCGEAGKEDTVEEEEGKFNLMLMELSICNEIIHPGCLKIKESEGVVNDELPNCWECPKC [C33L] as the variant, how does the abundance fitness read?
Its abundance fitness is -0.765 ± 0.15.

Which abundance fitness does the source give for LPHTAVCLVCGEAGKEDTVEEEEGKFNLMLMECSICNEIIHPGCLKIKESEGVVNIELPNCWECPKC [D56I] here?
Its abundance fitness is -0.685 ± 0.46.

Which abundance fitness does the source give for LPHTAVCLVCGEAGKEDTVEEEEGKFNLMLMECSICNEIIHPGCLKIKESEGVVNVELPNCWECPKC [D56V] here?
Its abundance fitness is -0.102 ± 0.067.

For LPHTAVCLVCGEANKEDTVEEEEGKFNLMLMECSICNEIIHPGCLKIKESEGVVNDELPNCWECPKC [G14N], which abundance fitness is on record?
Its abundance fitness is -0.003 ± 0.096.

For LPHTAVCLVCGEAGKEDTVEEEEGKFNSMLMECSICNEIIHPGCLKIKESEGVVNDELPNCWECPKC [L28S], which abundance fitness is on record?
Its abundance fitness is 0.068 ± 0.087.

Which abundance fitness does the source give for LPHTAVCLVCGEAGKEDTVEEEEGKFNKMLMECSICNEIIHPGCLKIKESEGVVNDELPNCWECPKC [L28K] here?
Its abundance fitness is 0.152 ± 0.14.

Which abundance fitness does the source give for LPHTAVCLVCGEAGKEDTVEEEEGKFNLMLMECSICNEIIHPGCLKIKESEIVVNDELPNCWECPKC [G52I] here?
Its abundance fitness is -0.525 ± 0.24.

With LPHTAVCLVCGEAGKEDTVEEEEGKFNLMLMECSICNEIIHPGCLKIKESEDVVNDELPNCWECPKC [G52D] as the variant, how does the abundance fitness read?
Its abundance fitness is -0.121 ± 0.097.

Which abundance fitness does the source give for LPHTAVCLVCGEAGKEDTVEEEEGKNNLMLMECSICNEIIHPGCLKIKESEGVVNDELPNCWECPKC [F26N] here?
The abundance fitness was 0.053 ± 0.13.

With LPHTAVCLVCGEAGKEDTVEEEEGKFNLMLMECSICNEPIHPGCLKIKESEGVVNDELPNCWECPKC [I39P] as the variant, how does the abundance fitness read?
Its abundance fitness is -0.055 ± 0.13.

With LPHTAVCLVCGEAGKEDTVEEEEGKFNLMLMECSICNESIHPGCLKIKESEGVVNDELPNCWECPKC [I39S] as the variant, how does the abundance fitness read?
The abundance fitness was -0.129 ± 0.086.

With LPHTAVCLVCGEAGKEDTVEEEEGKFNLMLMECSICNEIIHPGCLKLKESEGVVNDELPNCWECPKC [I47L] as the variant, how does the abundance fitness read?
Its abundance fitness is -0.133 ± 0.072.

With LPHTAVCLVCGEAGKEDTVEEEEGKFNLMLMECSICNEIIHPGCGKIKESEGVVNDELPNCWECPKC [L45G] as the variant, how does the abundance fitness read?
Its abundance fitness is -0.114 ± 0.081.

Which abundance fitness does the source give for LPHTAVCLVCGEAGKEDTVEEEEGKFNLMLMECSICNEIIHPGCLKIKESEGVVNDELCNCWECPKC [P59C] here?
Its abundance fitness is -0.076 ± 0.11.

For LPHTAVCLVCGEAGKEDTVEEEEGKFNLMLMECSICNEIIHPGCLKIKESEGVVNDELPNCFECPKC [W62F], which abundance fitness is on record?
The abundance fitness was -0.014 ± 0.34.

For LPHTAPCLVCGEAGKEDTVEEEEGKFNLMLMECSICNEIIHPGCLKIKESEGVVNDELPNCWECPKC [V6P], which abundance fitness is on record?
The abundance fitness was -0.124 ± 0.14.

Which abundance fitness does the source give for LPHTAVCLVCGEAGKEDTVEEEEGKFNLMLMECSICNEIIHPGCLKIKESMGVVNDELPNCWECPKC [E51M] here?
The abundance fitness was -0.19 ± 0.093.

For LPHTAVCLVCGEAGKEDTVEEEEGKFNLMLMECSICNEIIRPGCLKIKESEGVVNDELPNCWECPKC [H41R], which abundance fitness is on record?
Its abundance fitness is -0.943 ± 0.12.

For LPHTAVCLVCGEAGKEDTVEEEEEKFNLMLMECSICNEIIHPGCLKIKESEGVVNDELPNCWECPKC [G24E], which abundance fitness is on record?
Its abundance fitness is 0.013 ± 0.07.

For LPHTAVCLVCGEAGKQDTVEEEEGKFNLMLMECSICNEIIHPGCLKIKESEGVVNDELPNCWECPKC [E16Q], which abundance fitness is on record?
The abundance fitness was 0.022 ± 0.12.
